This is an account of results in PMC12208494, “The zinc metalloprotein MigC impacts cell wall biogenesis through interactions with an essential Mur ligase in Acinetobacter baumannii” (PLOS Pathogens, 2025).

Test [1] deals with MurD (A1S_0245), recombinant, purified (Acinetobacter baumannii). Put plainly: enzyme inhibition curve (HPLC assay of MurD activity); 40 nM MurD; Zn-loaded MigC (1.0 mol equivalent ZnSO4) 0.025-75 µM final, with GTP; enzyme mixture pre-incubated 10 min at 37 °C; 200 µM UMA, 1 mM D-glutamate, 1 mM ATP, 0.1 mg/mL BSA; 25 mM HEPES, 150 mM KCl, 2 mM MgCl2, 2 mM TCEP, pH 7.4, 37 °C; Ki fitted with the maximal inhibition fixed from a global fit.
Sequence of MurD (A1S_0245), recombinant, purified (Acinetobacter baumannii) (A3M1C6 whole entry): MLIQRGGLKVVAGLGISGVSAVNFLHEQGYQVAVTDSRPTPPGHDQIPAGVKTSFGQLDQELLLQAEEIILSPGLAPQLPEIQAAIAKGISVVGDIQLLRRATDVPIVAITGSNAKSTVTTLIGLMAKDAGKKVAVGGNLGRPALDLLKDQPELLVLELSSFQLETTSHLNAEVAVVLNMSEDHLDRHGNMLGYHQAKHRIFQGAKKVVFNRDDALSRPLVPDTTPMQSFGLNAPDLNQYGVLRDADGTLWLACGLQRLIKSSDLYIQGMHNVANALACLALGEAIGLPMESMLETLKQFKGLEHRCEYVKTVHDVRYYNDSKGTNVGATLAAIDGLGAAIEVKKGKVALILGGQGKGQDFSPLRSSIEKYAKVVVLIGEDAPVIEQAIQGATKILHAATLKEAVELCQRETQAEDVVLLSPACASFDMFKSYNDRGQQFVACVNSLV

Test [2] has the same target. Put plainly: enzyme inhibition curve (HPLC assay of MurD activity); as a3 but apo MigC (no Zn) with GTP.
For test [3] the target is unchanged. Briefly: enzyme inhibition curve (HPLC assay of MurD activity); as a3 but apo MigC (no Zn) without GTP.
The target is the same in test [4].

Turning to “E99A MigC, recombinant, purified (enzyme)”, the Ki (in general, the dissociation constant of the complex between target and ligand, obtained from inhibition or displacement) in test [1] was determined as 21 µM.

With “MigC (A1S_0934), recombinant, purified (enzyme)”, the Ki in test [2] was found to be 43 µM; in test [1], 32 µM; in test [3], 20 µM. The maximal inhibition of MurD activity at saturating Zn-MigC (inhibition curves, 0.025-75 µM MigC, HPLC) in test [4] is 75%.
